PMC7053995, “New approach for membrane protein reconstitution into peptidiscs and basis for their adaptability to different proteins” (eLife, 2020)

B1: Escherichia coli MsbA (ABC transporter, lipid transporter), His-tagged (natural protein)
chain: MHNDKDLSTWQTFRRLWPTIAPFKAGLIVAGVALILNAASDTFMLSLLKPLLDDGFGKTDRSVLVWMPLVVIGLMILRGITSYVSSYCISWVSGKVVMTMRRRLFGHMMGMPVSFFDKQSTGTLLSRITYDSEQVASSSSGALITVVREGASIIGLFIMMFYYSWQLSIILIVLAPIVSIAIRVVSKRFRNISKNMQNTMGQVTTSAEQMLKGHKEVLIFGGQEVETKRFDKVSNRMRLQGMKMVSASSISDPIIQLIASLALAFVLYAASFPSVMDSLTAGTITVVFSSMIALMRPLKSLTNVNAQFQRGMAACQTLFTILDSEQEKDEGKRVIERATGDVEFRNVTFTYPGRDVPALRNINLKIPAGKTVALVGRSGSGKSTIASLITRFYDIDEGEILMDGHDLREYTLASLRNQVALVSQNVHLFNDTVANNIAYARTEQYSREQIEEAARMAYAMDFINKMDNGLDTVIGENGVLLSGGQRQRIAIARALLRDSPILILDEATSALDTESERAIQAALDELQKNRTSLVIAHRLSTIEKADEIVVVEDGVIVERGTHNDLLEHRGVYAQLHKMQFGQ
notes: MsbA, ABC transporter of Escherichia coli; Nucleotide-free; also called His6-MsbA; source: E. coli C43, purified (DDM, Ni-NTA, SEC)
B2: Escherichia coli mechanosensitive channel MscS, His-tagged (natural protein, UniProt P0C0S1 1-286, looked up)
chain: MEDLNVVDSINGAGSWLVANQALLLSYAVNIVAALAIIIVGLIIARMISNAVNRLMISRKIDATVADFLSALVRYGIIAFTLIAALGRVGVQTASVIAVLGAAGLAVGLALQGSLSNLAAGVLLVMFRPFRAGEYVDLGGVAGTVLSVQIFSTTMRTADGKIIVIPNGKIIAGNIINFSREPVRRNEFIIGVAYDSDIDQVKQILTNIIQSEDRILKDREMTVRLNELGASSINFVVRVWSNSGDLQNVYWDVLERIKREFDAAGISFPYPQMDVNFKRVKEDKAA
notes: full-length E. coli MscS cloned into pET-28b(+); Homo-heptamer; source: E. coli BL21 (DE3), purified (Ni-NTA, SEC)

Legend:
[1] = molecular target: Rhodobacter sphaeroides dimeric RC–LH1–PufX complex (521 kDa) (Rhodobacter sphaeroides) (UniProt P0C0Y7); assay: negative-stain electron microscopy; SEC peak fractions of purified RC complexes in peptidiscs, 0.7% uranyl formate, 100 class averages by K-means classification
[2] = molecular target: the molecule itself; assay: cryo-EM structure; single-particle cryo-EM of His-tagged membrane protein reconstituted on Ni beads into peptidiscs and purified by SEC; vitrified; Titan Krios 300 kV, K2 Summit; RELION-3 with C2 (MsbA) or C7 (MscS) symmetry imposed, also processed without symmetry

Molecule | stoichiometry N [1] | stoichiometry N [2]
Rhodobacter sphaeroides dimeric RC–LH1–PufX complex (521 kDa) (from UniProt P0C0Y7 1-260; P13402 1-82) | 2 | –
B1 | – | 2
B2 | – | 7
